Test results: patent publication US20140370023A1 (HENRY M JACKSON FOUNDATION FOR THE ADVANCEMENT OF MILITARY …, published 2014)

Legend:
[1] = target: T1, human ERG3 (wild type ERG3 protein, 53 kDa) (human, UniProt P11308 1-479); experiment: sandwich ELISA on ERG3 protein lysate, 9FY titrated by fold dilution, absorbance at 450 nm; competitor: immunizing polypeptide
T1 construct: Expressed heterologously in HEK-293 cells (pIRES-EGFP(CMV)-ERG3), as protein lysate in the ELISA, or in LNCaP cells by Ad-ERG3 adenovirus; also called ERG3 antigen
T1 sequence: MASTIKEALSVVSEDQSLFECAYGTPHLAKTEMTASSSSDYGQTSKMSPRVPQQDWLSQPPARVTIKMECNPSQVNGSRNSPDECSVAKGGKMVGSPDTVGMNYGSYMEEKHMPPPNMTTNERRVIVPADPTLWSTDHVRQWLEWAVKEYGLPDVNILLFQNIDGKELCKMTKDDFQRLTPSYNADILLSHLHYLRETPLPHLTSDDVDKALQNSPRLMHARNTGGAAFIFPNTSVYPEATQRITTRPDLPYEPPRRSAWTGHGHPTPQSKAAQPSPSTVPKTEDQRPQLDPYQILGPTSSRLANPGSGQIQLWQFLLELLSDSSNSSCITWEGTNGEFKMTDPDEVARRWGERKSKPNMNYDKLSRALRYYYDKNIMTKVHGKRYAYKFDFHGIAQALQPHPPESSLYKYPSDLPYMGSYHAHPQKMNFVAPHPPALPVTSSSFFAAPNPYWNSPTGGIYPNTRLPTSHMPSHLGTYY

[2] = target: T2, immunizing polypeptide (amino acids 42-66 of SEQ ID NO: 1) (human); experiment: direct ELISA, peptides plated at 1 to 1000 ng/mL (x axis 'ERG, ng/mL', log scale), probed with 9FY at 1:10,000, absorbance at 450 nm
T2 construct: Chemically synthesized; also called ERG 42-66 polypeptide
T2 peptide: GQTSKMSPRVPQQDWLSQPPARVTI
Method: Various concentrations of the immunizing polypeptide and two control polypeptides were plated in wells for ELISA and were probed with 1:10,000 dilution of 9FY antibody. Y-axis indicates absorbance values at 450 nm. On the X-axis the log 10 concentration of the ERG immunizing polypeptide and control polypeptides is shown in ng/ml. […] In sandwich ELISA assay, ERG3 protein lysates were plated in multi-well format plates and were assayed with various concentrations of 9FY antibody in the presence (white bar) or absence of the immunizing polypeptide (shaded bar). Fold dilution is marked on the X-axis. Antibody titration values are marked by shaded bars.
In an ELISA assay, we assessed the sensitivity and specificity of the 9FY antibody measuring the titer of various concentrations of the immunizing polypeptide (i.e. amino acids 42-66 of SEQ ID NO: 1). For direct ELISA, plates were first coated with 100 μl of ERG3 antigen at 1 ng/ml, 10 ng/ml, 100 ng/ml and 1 μg/ml and incubated for 16 h at 4° C. on a shaker before washing the plate five times with PBSt (300 μl/well). […] Absorbance was measured at 450 nm on a […]® Ascent (Thermo Scientific, Waltham, Mass.) ELISA plate reader according to the manufacturer's recommendation and the absorbance were plotted against antibody dilution. […]

[3] = target: T3, human FLi1 protein with N-terminal FLAG tag (human, UniProt Q01543 1-452, limits assumed); experiment: Western blot of transiently expressed FLAG-tagged protein
T3 construct: not shown: N-terminal FLAG tag
T3 sequence (looked up): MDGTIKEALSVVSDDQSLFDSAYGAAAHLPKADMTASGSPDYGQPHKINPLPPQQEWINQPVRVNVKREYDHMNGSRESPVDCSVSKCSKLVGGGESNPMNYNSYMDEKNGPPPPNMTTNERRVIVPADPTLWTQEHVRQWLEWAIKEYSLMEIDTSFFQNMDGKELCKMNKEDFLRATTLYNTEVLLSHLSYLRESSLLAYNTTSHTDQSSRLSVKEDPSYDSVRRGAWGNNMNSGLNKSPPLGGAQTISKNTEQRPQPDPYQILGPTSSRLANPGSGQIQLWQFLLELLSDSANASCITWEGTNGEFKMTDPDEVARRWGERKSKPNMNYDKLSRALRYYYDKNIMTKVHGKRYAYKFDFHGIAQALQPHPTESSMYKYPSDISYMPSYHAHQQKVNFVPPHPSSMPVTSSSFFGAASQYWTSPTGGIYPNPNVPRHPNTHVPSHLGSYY
Method: Therefore, the 9FY antibody was tested to see if it can discriminate between human ERG3 and the human FLi1 protein using Western blot assays. In this assay, transiently expressed human ERG3 (encoded by TMPRSS2/ERG3 construct) or human FLi1 protein was evaluated with the 9FY antibody.

B1: 9FY antibody (monoclonal antibody produced by the hybridoma clone 9FY) (antibody, V domains shown)
VH: QIQLVQSGPDLKKPGETVKISCKASGYTFTNYGINWVKQAPGKGFKWMGWIDTYTGEPTYVDDFKGRFVFSLETSASTAYLQINNLKNEDTATYFCVRKRAYDYEIYWGQGTPLTVSS
VL: ENVLTQSPAIMSASLGEKVTLSCRASSSVYYMFWYQQKSDASPKLWIYYTSNLAPGVPARFSGSGSGNSYSLTISSVEGEDAATYYCLQFSTSPWTFGGGTKLEIKR
notes: Mouse (Balb/C) hybridoma antibody purified from ascites over Protein G; sub-type determined to be IgG; also called ERG-MAb; 9FY monoclonal antibody
[1]
  binding result: binds
[2]
  binding result: binds
[3]
  binding result: no binding
